Results: the supplement of paper PMC9732359
± gives the uncertainty stated by the source.

Test: protein stability index of a GFP-peptide fusion (yeast GPS) (PSI 1-4); higher = more stable; sorted into four equal gates, so the index is relative within each strain
Procedure, shortened: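 Mid-log yeast cultures in leucine-free medium, carrying a pooled plasmid library, were sorted into four equal gates by their GFP/Cherry fluorescence ratio. Each plasmid expressed Cherry along with GFP fused upstream of a tiled 17-residue yeast protein peptide. Plasmids recovered from each gate were PCR-amplified and Illumina-sequenced, with reads assigned to strains by barcodes. The protein stability index was obtained by summing each gate's read frequency weighted by its gate number.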

Sequence	protein stability index (doa10∆)	protein stability index (pdr5∆)	protein stability index (san1∆)	protein stability index (ubr1∆)
EPYVAYGYPSYSTIRQL [RPL7A]	1.87 ± 0.044	2.14 ± 0.048	2.14 ± 0.058	2.23 ± 0.036
NVNNRFDNFLTEEELQA [BRN1]	3.07 ± 0.078	2.63 ± 0.079	3 ± 0.056	2.63 ± 0.054
FRLIDTGALINNLEPRQ [RPN11]	2.81 ± 0.23	3.18 ± 0.24		
IKLDRWLMEGSYQKAWD [RPN12]	2.72 ± 0.11	2.8 ± 0.098	2.9 ± 0.11	2.68 ± 0.11
LSTSVGWKYEDVVAKLE [RPL16A]	3.44 ± 0.11	3.29 ± 0.21	3.5 ± 0.14	3.53 ± 0.19
TFPVGRVHRLLRRGNYA [HTA1]	2.38 ± 0.13	2.86 ± 0.14	2.5 ± 0.087	2.27 ± 0.12
WRAIIKAIFPNTVDGDL [FAS1]	2.58 ± 0.13	2.75 ± 0.15	2.6 ± 0.094	
LHGLRSFYDAIFFNIPL [YJL039C/NUP192]	2.61 ± 0.039	2.24 ± 0.042	2.309 ± 0.022	1.9 ± 0.034
DTSKALLNVSVNITKFS [SKI6]	2.27 ± 0.08	2.57 ± 0.068	2.72 ± 0.073	2.42 ± 0.072
TPKLQTQLSYLISSSLS [YCS4]	1.95 ± 0.047	2.14 ± 0.052	2 ± 0.08	2.09 ± 0.046
LKDLMDLCDVVESKFTE [RPC19]	3.61 ± 0.2	3.5 ± 0.11	3.27 ± 0.11	3.26 ± 0.12
GNLSGKRVDFSGRTVIS [RPO31]	3 ± 0.073	3.01 ± 0.081	3.36 ± 0.073	3.17 ± 0.089
ESLQKRELLKSQVEDFT [SIR3]	3.15 ± 0.045	3.22 ± 0.054	3.12 ± 0.048	3.27 ± 0.043
VNGFLNLGYCNDKLIVD [RPN1]	3.32 ± 0.098	2.78 ± 0.067	2.89 ± 0.052	2.49 ± 0.079
SFDEWFNTPFANTGGQD [SNF2]	2.8 ± 0.099	2.99 ± 0.12	3.41 ± 0.095	3.15 ± 0.15
ELDQEYRSCETQDESEI [SMC4]	3.11 ± 0.12	3.24 ± 0.21	2.67 ± 0.19	3.31 ± 0.091
SFLDPLNYGNICEPKET [YJL039C/NUP192]	3.33 ± 0.12	2.81 ± 0.085	3.01 ± 0.095	2.66 ± 0.093
DLLDMIQFGAKNMFEKK [ISW2]	3.25 ± 0.14	3.29 ± 0.24	3 ± 0.16	
PPSSFGRSHTRNSTRSS [REC8]	3.04 ± 0.14	2.65 ± 0.17	3.14 ± 0.087	2.96 ± 0.17
EDKQNIEINEDNSQDDQ [RRI2]	3.44 ± 0.073	3.25 ± 0.066	3.23 ± 0.039	3.23 ± 0.04
RQILFKYPMYMQLEEEL [MED6]	2.18 ± 0.064	2.25 ± 0.069	2.37 ± 0.12	1.72 ± 0.062
LNIKPLLDAGCKVVAEM [SKP1]	2.44 ± 0.083	2.51 ± 0.081	1.85 ± 0.1	2.47 ± 0.054
TSIARIGDYILKSPVLS [QCR7]	1.5 ± 0.045	1.72 ± 0.045	1.49 ± 0.075	1.98 ± 0.033
KPTDATGNTTSKSAFSF [YOR098C/NUP1]	2.04 ± 0.12	2.57 ± 0.088	2.1 ± 0.12	2.46 ± 0.11
ERSLRQKYNLLHVLPTL [SNM1]	1.22 ± 0.07	1.3 ± 0.13	2.03 ± 0.28	1.35 ± 0.17
DYINELSNSNRFELHGD [REC8]	2.78 ± 0.12	3.08 ± 0.11	3 ± 0.092	3.03 ± 0.13

Sequence	protein stability index (doa10∆)	protein stability index (pdr5∆)	protein stability index (san1∆)	protein stability index (ubr1∆)
PELFESLGIAQPKGVIL [RPT6]	2.56 ± 0.052	2.82 ± 0.069	2.46 ± 0.092	2.54 ± 0.061
KRQYVKQFLTKDLKFPL [RPL20A]	3 ± 0.055	2.94 ± 0.061	2.76 ± 0.063	2.83 ± 0.04
GLGYVFEFQYLTIGVKF [SRB5]	1.15 ± 0.088	1.53 ± 0.1	1.08 ± 0.15	1.31 ± 0.087
EAVDDVFQAKMMDMLKQ [RPN11]	2.42 ± 0.053	2.58 ± 0.058	2.02 ± 0.061	2.79 ± 0.065
VTFSPTGRLFQVEYALE [PRE5]	3.28 ± 0.099	2.77 ± 0.12	2.93 ± 0.23	2.79 ± 0.062
ECPAIPIFNYIFTEKIY [YJL039C/NUP192]	1.34 ± 0.035	1.46 ± 0.038	1.43 ± 0.071	1.4 ± 0.034
FMNDAAADVSAVDAKQL [YML103C/NUP188]	2.52 ± 0.095	2.54 ± 0.099	3.06 ± 0.091	2.21 ± 0.081
LISDSNINNSSVAEKEE [SWI3]	1.6 ± 0.14	1.73 ± 0.13	1.56 ± 0.12	1.55 ± 0.11
KSVKFVQGLLQNAAANA [RPL17A]	2.56 ± 0.065	2.65 ± 0.068	2.28 ± 0.05	2.46 ± 0.034
MEDIEKIKPYVRSFSKA [LRP1]	2.64 ± 0.062	3 ± 0.05	2.51 ± 0.069	2.74 ± 0.038
HLMSWSKTGIIAYSDSQ [SIN4]	1.63 ± 0.11	1.59 ± 0.15	1.32 ± 0.12	2.2 ± 0.2
IAKLSVIPIRRGYWGTN [RPS2]	2.02 ± 0.073	1.67 ± 0.11	1.93 ± 0.19	1.76 ± 0.12
VKQIAPAELEGLLDLER [FAS2]	3.11 ± 0.3			
QVVLGGTSKYLINGHRA [SMC2]	2.88 ± 0.059	3.19 ± 0.066	2.97 ± 0.062	2.96 ± 0.065
NNNNTIDESMPDTAIDS [GRR1]	2.78 ± 0.061	3.02 ± 0.052	2.81 ± 0.061	3 ± 0.044
ALLRPGRLDRKVEIPLP [RPT4]	2.99 ± 0.28			
LKIFKIFCIDLEVFHHF [SRB8]	1.57 ± 0.069	2.23 ± 0.1	1.67 ± 0.1	2.53 ± 0.092
HHIHHFEKKELQEKFLN [IRR1]	1.72 ± 0.035	1.61 ± 0.043	1.87 ± 0.068	1.56 ± 0.037
MIKESSTANPNIKLLNN [POP1]	3.07 ± 0.2	2.9 ± 0.11	2.83 ± 0.087	2.74 ± 0.066
KFSLPFEQKGSQTTTND [YLR335W/NUP2]	3.25 ± 0.1	3.08 ± 0.1	3.11 ± 0.099	3.09 ± 0.094
TNGGLFGSGTQNNNTLG [YGR119C/NUP57]	3.25 ± 0.11	2.91 ± 0.091	3.02 ± 0.069	3.08 ± 0.069
NNDVFTIGPYRARKDRM [SSN3]	3.67 ± 0.27	3.11 ± 0.26	3.43 ± 0.14	3.32 ± 0.13
AMHYSSNIELAFSSVEH [COB]	1.93 ± 0.058	1.9 ± 0.06	1.91 ± 0.087	2.09 ± 0.082
WKEVMFDPSKDVLINEL [CDC53]	2.41 ± 0.074	1.87 ± 0.052	1.8 ± 0.12	1.91 ± 0.073
LVSEKIINSTALMKEKD [RPC82]	3.19 ± 0.17	3.11 ± 0.081	3.11 ± 0.084	3.27 ± 0.092
TELRQLFQENDDDDDDD [DSN1]	2.03 ± 0.063	2.36 ± 0.071	2.24 ± 0.11	2.38 ± 0.092
